# Measurements: paper PMC4627417
# Columns and labels:
# Assay in all cases: biotin-peptide pull-down, MUDPIT mass spectrometry
# RPRD1B = RPRD1B (UniProt Q9NQG5)
# RPRD2 = RPRD2 (UniProt Q5VT52)
# SCAF4 = SCAF4 (UniProt O95104)
# SCAF8 = SCAF8 (UniProt Q9UPN6)
# [1] = reference: unphosphorylated CTD peptide, sites Y1
# [2] = reference: pS2-CTD peptide, sites Y1
# [3] = reference: unphosphorylated CTD peptide, sites S2
# [4] = reference: unphosphorylated CTD peptide, sites S5
substance,measurement,setting,value
RNA polymerase II largest subunit (Rpb1) C-terminal repeated domain (CTD) (from UniProt P24928) pY1-CTD peptide,other: number of peptides identified,RPRD1B; [1],none in both; reference 0
same,other: number of peptides identified,RPRD2; [1],none in both; reference 0
same,other: number of peptides identified,SCAF4; [1],none in both; reference 0
same,other: number of peptides identified,SCAF8; [1],none in both; reference 0
RNA polymerase II largest subunit (Rpb1) C-terminal repeated domain (CTD) (from UniProt P24928) pY1pS2-CTD peptide,other: number of peptides identified,RPRD1B; [2],weaker; reference 40
same,other: number of peptides identified,RPRD2; [2],weaker; reference 63
same,other: number of peptides identified,SCAF4; [2],weaker; reference 12
same,other: number of peptides identified,SCAF8; [2],lost; reference 17
RNA polymerase II largest subunit (Rpb1) C-terminal repeated domain (CTD) (from UniProt P24928) pS2-CTD peptide,other: number of peptides identified,RPRD1B; [3],gained; reference 0
same,other: number of peptides identified,RPRD2; [3],gained; reference 0
same,other: number of peptides identified,SCAF4; [3],gained; reference 0
same,other: number of peptides identified,SCAF8; [3],gained; reference 0
RNA polymerase II largest subunit (Rpb1) C-terminal repeated domain (CTD) (from UniProt P24928) pS5-CTD peptide,other: number of peptides identified,RPRD1B; [4],none in both; reference 0
same,other: number of peptides identified,RPRD2; [4],none in both; reference 0
same,other: number of peptides identified,SCAF4; [4],none in both; reference 0
same,other: number of peptides identified,SCAF8; [4],none in both; reference 0
